Measured values published in article PMC13598120.

Target: GNL3, endogenous (UniProt Q9BVP2)
Experiment: PLA (α-Flag + α-GNL3)
Details: U2OS cells, 2 h, read off a plot

Sequence of GNL3, endogenous (Q9BVP2 whole entry): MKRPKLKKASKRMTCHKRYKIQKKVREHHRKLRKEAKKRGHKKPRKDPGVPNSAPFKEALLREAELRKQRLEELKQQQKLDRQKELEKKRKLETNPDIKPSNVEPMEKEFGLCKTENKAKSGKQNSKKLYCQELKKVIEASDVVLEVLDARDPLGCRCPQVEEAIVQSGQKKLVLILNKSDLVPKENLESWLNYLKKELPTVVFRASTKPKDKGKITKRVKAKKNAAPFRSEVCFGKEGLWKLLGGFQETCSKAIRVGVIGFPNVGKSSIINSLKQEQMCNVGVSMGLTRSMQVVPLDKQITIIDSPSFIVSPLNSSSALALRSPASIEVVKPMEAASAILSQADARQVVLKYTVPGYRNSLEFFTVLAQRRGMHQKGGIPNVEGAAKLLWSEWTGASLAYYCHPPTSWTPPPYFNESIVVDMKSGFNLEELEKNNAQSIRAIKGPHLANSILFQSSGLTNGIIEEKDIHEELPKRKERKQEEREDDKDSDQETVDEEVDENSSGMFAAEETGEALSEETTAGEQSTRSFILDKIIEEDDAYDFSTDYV

In the case of “Flag-BLM, wild type (from UniProt P54132) SIMdm (both SIMs, 217QIDL220 and 235VICI238, mutated; substitutions not printed)”, the response (PLA dots per cell) (20 μM ETO, parent: est. 54) is reported as 28 and the response (PLA dots per cell) (DMSO (control), parent: est. 16) is reported as 11.
